Measured values reported in patent US8524664B2, “Methods of treating overproduction of cortisol using ACTH antagonist peptides” (Colorado Seminary, Which owns and Operates The Univeristy …, priority 2011, dated 2013).
Entries after “also recorded” stand apart in the source; their conditions may differ. Like-named read-outs stand apart in the source and are kept apart here.

Tests used:
MC2R [1] = biological target: T1, MC2R (Homo sapiens, UniProt Q01718); test: Inhibition of ACTH(1-24)-dependent hMC2R activation by co-incubated analog: cAMP in transfected CHO cells; assay type: cell-based; set-up: host or cells: CHO cells, transient transfection, pcDNA3.1
Method: (§1) FIG. 1. Inhibition of ACTH(1-24) by ACTH(15-24) peptide. For all experiments, Chinese Hamster Ovary (CHO) cells were transiently transfected with a human melanocortin receptor gene construct (MC2R for FIGS. 1-3) and a mouse MRAP1 gene, as described in the Examples section. Two days later, individual wells of transfected CHO cells (10^5 cells per well) were incubated with ACTH(1-24) at concentrations ranging from 10^−6 to 10^−12 M. For these experiments, each concentration of ACTH(1-24) was co-incubated with either no KKRRPVKVYP (SEQ ID NO:1) (filled circle), 10^−6 M KKRRPVKVYP (SEQ ID NO:1) (filled diamond), 10^−7 M KKRRPVKVYP (SEQ ID NO:1) (half-filled square), 10^−8 KKRRPVKVYP (SEQ ID NO:1) (circle in square), or 10^−9 M KKRRPVKVYP (SEQ ID NO:1) (open square). After a 15 minute incubation, the amount of cAMP produced in each well of CHO cells was measured. Each data point is a minimum of n=3. […] The ACTH analog ACTH(11-24) [KPVGKKRRPVKVYP; SEQ ID NO:7] at a concentration of 10^−6 M produced a 50% inhibition of ACTH(1-24) stimulation, but had no effect on ACTH(1-24) stimulation when tested at a concentration of 10^−7 M.
FIG. 2. Dose response curve for ACTH analog AT814. AT814 is a previously-described ACTH inhibitor (WO 2006/052468). For this experiment, individual wells of transfected CHO cells (as described for FIG. 1) were incubated with ACTH(1-24) at concentrations ranging from 10^−6 to 10^−12 M alone (open circle) or ACTH(1-24) and AT814 at a concentration of 10^−6 M (open square).
FIG. 3. Dose response curve for ACTH analog AT814. […] Open circles: ACTH(1-24) alone; open squares: ACTH(1-24)+AT814 (10^−7 M).
(§2) To test this hypothesis, a human MC2R gene construct was transiently co-transfected with a mouse MCR2R accessory protein 1 (MRAP1) gene into CHO cells and subsequently, cAMP production was measured.
(§3) Human hMC2R, Genbank Accession No. AY225229.1, was synthesized by GenScript with a V-5 epitope tag and inserted into a pcDNA3.1 vector. Mouse (Mus musculus) mMRAP1, Genbank Accession No. NM_029844, was also synthesized by GenScript with a FLAG epitope tag and inserted into pcDNA3.1 vectors.
(§4) The experiments were all done in transiently transfected CHO cells. The CHO cells were grown at 37° C. in a humidified 5% CO2 incubator in Kaighn's Modification of Ham's F-12 (2 mM glutamine, 1500 mg/L bicarbonate) with 10% fetal bovine serum, 5 mL pen/strep, and 1 mL normocin.
(§5) In order to functionally express hMC2R in heterologous cells, like CHO cells, the hMC2R construct must be co-transfected with a mammalian MRAP (melanocortin receptor accessory protein; Hinkle, P. M. and Sebag, J. A. (2009) Structure and function of the melanocortin 2 receptor accessory protein. Mol. Cell. Endocrinol. 300:25-31). CHO cells were transfected with 2 μg of hMC2R and mMRAP using a Cell Line Nucleofector Kit (Amaxa, Inc.) with solution T and program U-023. The cells were then plated on a white, 96-well plate a density of 1×10^5 cells per well. 48 hours after transfection, cells were stimulated with the appropriate ligands in serum-free CHO media for 15 minutes at 37° C. at concentrations ranging from 10^−5 M to 10^−10 M. After a 15 minute incubation, a direct cAMP EIA kit (Assay Designs, Ann Arbor, Mich.) was used to measure cAMP in the CHO cells.
(§6) All experimental treatments were performed in no less than triplicate, and then corrected for control values, which were obtained by using transfected cells that were left unstimulated. In each of the assays, maximal activation levels were between three to 10 times the control level. Corrected values were normalized to 100 nM ACTH activation. Average values and standard errors of the mean were graphed using KaleidaGraph software, and the […] value for each ligand was determined.
Target sequence in this assay (Q01718 whole entry): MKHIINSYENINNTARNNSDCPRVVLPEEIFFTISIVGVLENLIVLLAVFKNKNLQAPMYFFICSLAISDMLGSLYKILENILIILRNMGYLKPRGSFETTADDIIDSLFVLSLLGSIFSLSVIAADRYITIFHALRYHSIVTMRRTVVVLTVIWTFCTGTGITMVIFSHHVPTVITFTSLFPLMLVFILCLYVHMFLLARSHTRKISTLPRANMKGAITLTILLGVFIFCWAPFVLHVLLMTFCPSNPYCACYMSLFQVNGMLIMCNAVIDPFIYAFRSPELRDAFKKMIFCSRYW
Target sequence in this assay (Q9D159 whole entry partner): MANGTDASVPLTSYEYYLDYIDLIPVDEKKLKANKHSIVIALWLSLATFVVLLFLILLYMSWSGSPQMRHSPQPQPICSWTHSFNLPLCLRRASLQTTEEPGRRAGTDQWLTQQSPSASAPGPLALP

MC2R [2] = biological target: T1, MC2R; test: Activation of hMC2R by ACTH analogs: cAMP production in CHO cells co-transfected with hMC2R and mouse MRAP1; assay type: cell-based; set-up: host or cells: CHO cells, transient transfection, pcDNA3.1; conditions: 10^-6 to 10^-12 M
Target sequence in this assay (Q01718 whole entry): as the sequence (Q01718 whole entry) above
Target sequence in this assay (Q9D159 whole entry partner): as the sequence (Q9D159 whole entry partner) above

MC2R [3] = biological target: T1, MC2R; test: as above; assay type: cell-based; set-up: host or cells: CHO cells, transient transfection, pcDNA3.1; conditions: for MC2R activation relative to full-length ACTH / MC2R activation relative to full-length ACTH: fold drop in activity: analog alone, transfected CHO cells, cAMP after 15 min
Method: as §1, §2, §3, §4, §5, §6
Target sequence in this assay (Q01718 whole entry): as the sequence (Q01718 whole entry) above
Target sequence in this assay (Q9D159 whole entry partner): as the sequence (Q9D159 whole entry partner) above

MC2R [4] = biological target: T1, MC2R; conditions: from previous studies / literature, cited from earlier work
Target sequence in this assay (Q01718 whole entry, species assumed): as the sequence (Q01718 whole entry) above
Target sequence in this assay (Q8TCY5 whole entry partner, species assumed): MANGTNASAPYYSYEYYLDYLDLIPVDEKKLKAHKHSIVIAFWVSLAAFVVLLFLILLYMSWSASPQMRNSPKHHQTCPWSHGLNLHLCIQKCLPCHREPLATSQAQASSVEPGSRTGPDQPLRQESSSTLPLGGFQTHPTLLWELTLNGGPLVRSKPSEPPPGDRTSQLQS

human MC4R = biological target: T2, human MC4R (Homo sapiens, UniProt P32245); test: Activation of human MC4R in hMC4R-transfected CHO cells (cAMP production); assay type: cell-based; conditions: analog at 10^-6 to 10^-12 M
T2 construct: expressed in transfected cells; host or cells: CHO cells, pcDNA3.1
Method: FIG. 4. Activation of human MC4R by ACTH analog AT814. Because AT814 has the HFRW (SEQ ID NO:8) motif, the hypothesis that this analog could activate the human MC4 receptor was tested. CHO cells were transfected with a human MC4R cDNA construct in a pcDNA3.1 vector.

[5] = analog at 10^-6 M co-incubated with ACTH(1-24) 10^-6 to 10^-12 M
[6] = analog at 10^-7 M co-incubated with ACTH(1-24) 10^-6 to 10^-12 M
[7] = analog at 10^-8 M co-incubated with ACTH(1-24)

T2 sequence (P32245 whole entry): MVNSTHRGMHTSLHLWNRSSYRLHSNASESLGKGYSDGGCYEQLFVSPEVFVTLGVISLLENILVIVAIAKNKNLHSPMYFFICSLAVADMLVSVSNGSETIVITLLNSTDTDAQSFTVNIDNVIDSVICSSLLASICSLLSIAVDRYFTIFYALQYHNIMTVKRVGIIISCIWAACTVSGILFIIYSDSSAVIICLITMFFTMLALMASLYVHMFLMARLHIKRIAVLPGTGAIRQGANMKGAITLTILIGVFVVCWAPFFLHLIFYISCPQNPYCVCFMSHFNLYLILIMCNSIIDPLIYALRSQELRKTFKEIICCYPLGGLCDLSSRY

## KKRRPAAAA (synthetic adrenocorticotropin hormone (ACTH) analog)
MC2R [1]; [5]
  inhibition of ACTH(1-24) activation of hMC2R: did not block

## KKRRPVKVYP (synthetic adrenocorticotropin hormone analog ACTH(15-24) peptide, human ACTH residues 15-24, ACTH antagonist polypeptide) [ACTH antagonist polypeptide, residues 15-24 of human ACTH]
MC2R [2]
  activation of hMC2R (cAMP production) by analog incubated alone: did not activate
MC2R [1]; [5]
  inhibition of ACTH(1-24) activation of hMC2R: complete blockage
MC2R [1]; analog at 10^-6 M co-incubated with ACTH(1-24) 10^-6 to 10^-12 M, listed as ACTH(15-24)
  inhibition of ACTH(1-24) activation of hMC2R: completely blocked
MC2R [1]; [6]
  inhibition of ACTH(1-24) activation of hMC2R: complete blockage
MC2R [1]; analog at 10^-7 M co-incubated with ACTH(1-24) 10^-6 to 10^-12 M, listed as ACTH(15-24)
  inhibition of ACTH(1-24) activation of hMC2R: completely blocked
MC2R [1]; [7]
  drop in hMC2R activation by ACTH(1-24): 34±5%
  inhibition of ACTH(1-24) activation of hMC2R: partial blockage
MC2R [1]; analog at 10^-9 M co-incubated with ACTH(1-24)
  inhibition of ACTH(1-24) activation of hMC2R: no effect
MC2R [3]
  MC2R activation relative to full-length ACTH: No activity

## KPVGKKRRPVKVYP (synthetic adrenocorticotropin hormone analog ACTH(11-24) peptide, human ACTH residues 11-24) [ACTH analog ACTH(11-24), reference compound]
MC2R [1]; analog at 10^-6 M co-incubated with ACTH(1-24)
  inhibition of ACTH(1-24) stimulation: 50%
MC2R [1]; [6]
  inhibition of ACTH(1-24) activation of hMC2R: no effect

## NAc-SYSMEHFRWGKPV-NH2 [α-MSH]
MC2R [4]
  activation of MC2R (previous studies): cannot activate

## RRPVKVYP (synthetic adrenocorticotropin hormone analog ACTH(17-24) peptide, human ACTH residues 17-24) [ACTH analog ACTH(17-24)]
MC2R [1]; [5]
  inhibition of ACTH(1-24) activation of hMC2R: did not block
MC2R [1]; analog at 10^-6 M co-incubated with ACTH(1-24) 10^-6 to 10^-12 M, listed as ACTH(17-24)
  inhibition of ACTH(1-24) activation of hMC2R: no inhibitory effect
MC2R [3]
  MC2R activation relative to full-length ACTH: No activity

## SYSMEAAAAGKPVGKKRRPVKVYP (synthetic adrenocorticotropin hormone (ACTH) analog)
MC2R [3]
  MC2R activation relative to full-length ACTH: No activity

## SYSMEHARWGKPVGKKRRPVKVYP (synthetic adrenocorticotropin hormone (ACTH) analog)
MC2R [3]
  MC2R activation relative to full-length ACTH: No activity

## SYSMEHFAWGKPVGKKRRPVKVYP (synthetic adrenocorticotropin hormone (ACTH) analog)
MC2R [3]
  MC2R activation relative to full-length ACTH: No activity

## SYSMEHFRWAAAAAKKRRPVKVYP (synthetic adrenocorticotropin hormone (ACTH) analog)
MC2R [3]
  MC2R activation relative to full-length ACTH: fold drop in activity: 400 fold drop

## SYSMEHFRWGKPVGAAAAAVKVYP (synthetic adrenocorticotropin hormone (ACTH) analog)
MC2R [3]
  MC2R activation relative to full-length ACTH: No activity

## SYSMEHFRWGKPVGAARRPVKVYP (synthetic adrenocorticotropin hormone (ACTH) analog)
MC2R [3]
  MC2R activation relative to full-length ACTH: fold drop in activity: 100 fold drop

## SYSMEHFRWGKPVGKKAAAVKVYP (synthetic adrenocorticotropin hormone (ACTH) analog)
MC2R [3]
  MC2R activation relative to full-length ACTH: fold drop in activity: 100 fold drop

## SYSMEHFRWGKPVGKKRRPVKVYP [reference compound]
MC2R [4]; listed as ACTH(1-24)
  activation of MC2R (previous studies): as potent an activator of MC2R as ACTH(1-39); also recorded: as fully as full-length human ACTH
MC2R [3]; 10^-6 to 10^-12 M, listed as ACTH(1-24)
  activation of hMC2R (cAMP production) by analog incubated alone: robust standard curve; also recorded: produced cAMP in a dose dependent manner
MC2R [3]
  MC2R activation relative to full-length ACTH: Full activity

## SYSMEHFRWGKPVGKRAAWVKVYP (synthetic adrenocorticotropin hormone (ACTH) analog AT814 with modified KKRRP motif) [reference compound]
Human MC4R
  activation of human MC4R (cAMP production): can activate; also recorded: stimulated the production of cAMP in a dose dependent manner
MC2R [1]; [5]
  inhibition of ACTH(1-24) activation of hMC2R: competitive inhibitor; also recorded: completely inhibited
MC2R [1]; [6]
  inhibition of ACTH(1-24) activation of hMC2R: ineffective; also recorded: no inhibitory effect
